These results are taken from patent US20070287170A1 (Merck KGaA, published 2007).

Sequences and labels used below:
B2: DI-KS(AG(f0) SEED)-IL-2 heavy chain with DI-KS light chain (antibody)
heavy: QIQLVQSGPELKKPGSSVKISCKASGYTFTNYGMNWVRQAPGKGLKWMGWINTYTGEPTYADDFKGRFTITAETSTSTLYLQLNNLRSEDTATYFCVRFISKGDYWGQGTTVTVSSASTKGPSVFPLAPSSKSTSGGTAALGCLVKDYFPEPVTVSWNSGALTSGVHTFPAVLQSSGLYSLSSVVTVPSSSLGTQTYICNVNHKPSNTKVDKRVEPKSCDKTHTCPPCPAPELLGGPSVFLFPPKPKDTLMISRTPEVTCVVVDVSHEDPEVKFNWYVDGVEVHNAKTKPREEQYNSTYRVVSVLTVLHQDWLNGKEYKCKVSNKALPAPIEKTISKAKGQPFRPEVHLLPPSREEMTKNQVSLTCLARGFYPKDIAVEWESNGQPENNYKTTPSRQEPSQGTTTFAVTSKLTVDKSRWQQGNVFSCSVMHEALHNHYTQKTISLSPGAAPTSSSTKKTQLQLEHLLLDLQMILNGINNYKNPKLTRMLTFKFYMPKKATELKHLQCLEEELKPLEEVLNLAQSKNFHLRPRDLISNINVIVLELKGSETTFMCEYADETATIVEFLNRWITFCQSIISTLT
light: QIVLTQSPASLAVSPGQRATITCSASSSVSYILWYQQKPGQPPKPWIFDTSNLASGFPSRFSGSGSGTSYTLTINSLEAEDAATYYCHQRSGYPYTFGGGTKVEIKRTVAAPSVFIFPPSDEQLKSGTASVVCLLNNFYPREAKVQWKVDNALQSGNSQESVTEQDSKDSTYSLSSTLTLSKADYEKHKVYACEVTHQGLSSPVTKSFNRGEC
notes: also called heavy chain-IL2

Data set [1] deals with the molecule itself. Briefly: co-expression in mammalian cells, non-reducing SDS-PAGE (homodimer).
Data set [2] addresses B2. The data set can be described thus: co-expression in mammalian cells, non-reducing SDS-PAGE (heterodimer).
Data set [3] concerns the molecule itself. Briefly: co-expression of both heavy chains and the light chain in mammalian cells, non-reducing SDS-PAGE.
Data set [4] deals with the molecule itself. Briefly: co-expression with Fc(AG(f0) SEED)-IL2 in NS/0 cells, non-reducing SDS-PAGE (homodimer).
Data set [5] has as its target T1, Fc(AG(f0) SEED)-IL2.
T1 construct: also called "Full" AG SEED-IL-2; Fc(AG SEED)-IL2
The data set can be described thus: co-expression in NS/0 cells, SDS-PAGE (figure legend).

Data set [6] deals with the molecule itself. The data set can be described thus: co-expression with Fc(AG(s0) SEED)-IL2 in NS/0 cells, non-reducing SDS-PAGE (homodimer).
The target in data set [7] is T2, Fc(AG(s0) SEED)-IL2 (human).
T2 construct: It was put together from the cloning scheme (Ngo MIV/Sma I fragment exchange in the pdCs Fc-IL2 vector); also called "Surface" AG SEED-IL-2; AG SURF
Briefly: co-expression in NS/0 cells, SDS-PAGE (figure legend).

B1: DI-KS(GA(f0) SEED) heavy chain with DI-KS light chain (antibody)
heavy: QIQLVQSGPELKKPGSSVKISCKASGYTFTNYGMNWVRQAPGKGLKWMGWINTYTGEPTYADDFKGRFTITAETSTSTLYLQLNNLRSEDTATYFCVRFISKGDYWGQGTTVTVSSASTKGPSVFPLAPSSKSTSGGTAALGCLVKDYFPEPVTVSWNSGALTSGVHTFPAVLQSSGLYSLSSVVTVPSSSLGTQTYICNVNHKPSNTKVDKRVEPKSCDKTHTCPPCPAPELLGGPSVFLFPPKPKDTLMISRTPEVTCVVVDVSHEDPEVKFNWYVDGVEVHNAKTKPREEQYNSTYRVVSVLTVLHQDWLNGKEYKCKVSNKALPAPIEKTISKAKGQPREPQVYTLPPPSEELALNELVTLTCLVKGFYPSDIAVEWLQGSQELPREKYLTWAPVLDSDGSFFLYSILRVAAEDWKKGDTFSCSVMHEALHNHYTQKSLDRSPGK
light: QIVLTQSPASLAVSPGQRATITCSASSSVSYILWYQQKPGQPPKPWIFDTSNLASGFPSRFSGSGSGTSYTLTINSLEAEDAATYYCHQRSGYPYTFGGGTKVEIKRTVAAPSVFIFPPSDEQLKSGTASVVCLLNNFYPREAKVQWKVDNALQSGNSQESVTEQDSKDSTYSLSSTLTLSKADYEKHKVYACEVTHQGLSSPVTKSFNRGEC
notes: It has anti-EpCAM V regions, human IgG1 CH1 and CH2, and human Ckappa; also called antibody heavy chain (no IL-2)
In the case of B1, the binding result in data set [1] and in data set [2] was “binds” in each case.

Consider B2, for which, in data set [3], the binding result is “no binding”.

B3: Fc(GA(f0) SEED) (designed binder)
chain: EPKSSDKTHTCPPCPAPELLGGPSVFLFPPKPKDTLMISRTPEVTCVVVDVSHEDPEVKFNWYVDGVEVHNAKTKPREEQYNSTYRVVSVLTVLHQDWLNGKEYKCKVSNKALPAPIEKTISKAKGQPREPQVYTLPPPSEELALNELVTLTCLVKGFYPSDIAVEWLQGSQELPREKYLTWAPVLDSDGSFFLYSILRVAAEDWKKGDTFSCSVMHEALHNHYTQKSLDRSPGK
notes: also called "Full" GA SEED; Fc(GA SEED)
As for B3, the binding result in data set [4] and in data set [5] was “binds” throughout.

B4: Fc(GA(s0) SEED) (designed binder)
chain: EPKSSDKTHTCPPCPAPELLGGPSVFLFPPKPKDTLMISRTPEVTCVVVDVSHEDPEVKFNWYVDGVEVHNAKTKPREEQYNSTYRVVSVLTVLHQDWLNGKEYKCKVSNKALPAPIEKTISKAKGQPREPQVYTLPPPSEELALNNQVTLTCLVKGFYPSDIAVEWESNGQPEPREKYLTWAPVLDSDGSFFLYSILRVDASRWQQGNVFSCSVMHEALHNHYTQKSLSLSPGK
notes: It was put together from the cloning scheme: the Ngo MIV/Sma I fragment for the SEED replaces that of CH3 in the pdCs Fc vector; also called "Surface" GA SEED; GA SURF
B4: the binding result in data set [6] and in data set [7] was “binds” each time.
